For one substance, activity (mU beta-galactosidase) and activity (beta-galactosidase activity) results are on record in patent US20080280333.

This series deals with T1, GlxR (Corynebacterium glutamicum) (UniProt Q79VI7).
T1 sequence: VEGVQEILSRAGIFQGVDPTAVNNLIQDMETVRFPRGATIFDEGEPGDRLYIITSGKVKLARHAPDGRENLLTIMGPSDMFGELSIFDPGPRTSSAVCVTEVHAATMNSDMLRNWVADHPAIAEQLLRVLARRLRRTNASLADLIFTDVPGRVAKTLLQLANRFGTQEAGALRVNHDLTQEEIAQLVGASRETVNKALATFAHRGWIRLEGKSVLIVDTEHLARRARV
Kind of series: cell_activity.

Turning to “PaceB-lacZYA reporter (aceB promoter region)”, the activity (mU beta-galactosidase) (E. coli DH5alphaF'-145 with pSL145, 27 mU with empty vector pMT1, repression) turned out to be 2.5. This substance came in with an activity (beta-galactosidase activity) (E. coli HL994, chromosomal PaceB-lacZYA, 237 with empty vector) of 128.
